Results on one molecule are retold here after PMC12685124 (Proceedings of the National Academy of Sciences of the …, 2025).

Test [1] concerns the target T1, mesencephalic astrocyte-derived neurotrophic factor (Manf), recombinant (UniProt P55145 25-182). Put plainly: MST.
The target in test [2] is T2, brain-derived neurotrophic factor (BDNF) (UniProt P23560 19-247).
T2 sequence (looked up): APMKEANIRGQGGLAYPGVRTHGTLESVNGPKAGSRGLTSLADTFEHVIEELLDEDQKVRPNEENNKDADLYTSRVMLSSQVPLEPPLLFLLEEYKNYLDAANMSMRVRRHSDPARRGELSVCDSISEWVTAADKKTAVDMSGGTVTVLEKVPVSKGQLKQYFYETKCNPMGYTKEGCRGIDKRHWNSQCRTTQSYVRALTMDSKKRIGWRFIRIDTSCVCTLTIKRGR
Put plainly: MST.

Test [3] has as its target T1, mesencephalic astrocyte-derived …. Put plainly: ELISA.

B1: recombinant Np55 protein, extracellular domain (SinoBiological) (domain or fragment)
chain: QNEPRIVTSEEVIIRDSPVLPVTLQCNLTSSSHTLTYSYWTKNGVELSATRKNASNMEYRINKPRAEDSGEYHCVYHFVSAPKANATIEVKAAPDITGHKRSENKNEGQDATMYCKSVGYPHPDWIWRKKENGMPMDIVNTSGRFFIINKENYTELNIVNLQITEDPGEYECNATNAIGSASVVTVLRVRSHLAP
modifications: RED-NHS fluorescent label (in the MST assay only)
With B1, the Kd in test [1] amounted to 0.0346 ± 0.00719 µM; in test [2], 1.74 ± 0.41 µM; in test [3] it was 0.0145 ± 0.00117 µM.
